# According to patent publication US20160279196A1 (US Dept. of Health and Human Services, published 2016):
# B1: codon-optimized human-mouse chimera SSX-2 TCR (codon-optimized SSX-2 TCR including mouse constant region; expressed from the vector comprising SEQ ID NO: 30) (TCR)
# TCR alpha: MSLSSLLKVVTASLWLGPGIAQKITQTQPGMFVQEKEAVTLDCTYDTSDPSYGLFWYKQPSSGEMIFLIYQGSYDQQNATEGRYSLNFQKARKSANLVISASQLGDSAMYFCAMTSGFGNEKLTFGTGTRLTIIPNDIQNPEPAVYQLKDPRSQDSTLCLFTDFDSQINVPKTMESGTFITDKTVLDMKAMDSKSNGAIAWSNQTSFTCQDIFKETNATYPSSDVPCDATLTEKSFETDMNLNFQNLSVMGLRILLLKVAGFNLLMTLRLWSS
# TCR beta: MGPGLLHWMALCLLGTGHGDAMVIQNPRYQVTQFGKPVTLSCSQTLNHNVMYWYQQKSSQAPKLLFHYYDKDFNNEADTPDNFQSRRPNTSFCFLDIRSPGLGDAAMYLCATSRGQGGQPQHFGDGTRLSILEDLRNVTPPKVSLFEPSKAEIANKQKATLVCLARGFFPDHVELSWWVNGKEVHSGVSTDPQAYKESNYSYCLSSRLRVSATFWHNPRNHFRCQVQFHGLSEEDKWPEGSPKPVTQNISAEAWGRACGITSSYQQGVLSATILYEILLGKATLYAVLVSTLVVMAMVKRKNS
# B2: SSX-2 TCR (HLA-A2 restricted TCR from a natural T cell clone, TRAV14/DV4*01 and TRBV15*02-CB1; expressed from the vector comprising SEQ ID NO: 27) (TCR)
# TCR alpha: MSLSSLLKVVTASLWLGPGIAQKITQTQPGMFVQEKEAVTLDCTYDTSDPSYGLFWYKQPSSGEMIFLIYQGSYDQQNATEGRYSLNFQKARKSANLVISASQLGDSAMYFCAMTSGFGNEKLTFGTGTRLTIIPNIQNPDPAVYQLRDSKSSDKSVCLFTDFDSQTNVSQSKDSDVYITDKTVLDMRSMDFKSNSAVAWSNKSDFACANAFNNSIIPEDTFFPSPESSCDVKLVEKSFETDTNLNFQNLSVIGFRILLLKVAGFNLLMTLRLWSS
# TCR beta: MGPGLLHWMALCLLGTGHGDAMVIQNPRYQVTQFGKPVTLSCSQTLNHNVMYWYQQKSSQAPKLLFHYYDKDFNNEADTPDNFQSRRPNTSFCFLDIRSPGLGDAAMYLCATSRGQGGQPQHFGDGTRLSILEDLNKVFPPEVAVFEPSEAEISHTQKATLVCLATGFFPDHVELSWWVNGKEVHSGVSTDPQPLKEQPALNDSRYCLSSRLRVSATFWQNPRNHFRCQVQFYGLSENDEWTQDRAKPVTQIVSAEAWGRADCGFTSVSYQQGVLSATILYEILLGKATLYAVLVSALVLMAMVKRKDF
# B3: codon-optimized SSX-2 TCR (expressed from the vector comprising SEQ ID NO: 29) (TCR)
# TCR alpha: B2 TCR alpha
# TCR beta: B2 TCR beta
# Biological target: T1, naturally processed and presented SSX-2 protein on SSX-2+/HLA-A2+ target cells (human)
# Assay: cell-based or functional assay
"interferon-γ levels (pg/ml), co-culture with 293-A2-SSX2 cells","interferon-γ levels (pg/ml), co-culture with 624 mel cells","interferon-γ levels (pg/ml), co-culture with 938-A2 mel cells","interferon-γ levels (pg/ml), co-culture with 1300 mel cells","interferon-γ levels (pg/ml), co-culture with COS-A2-SSX2 cells","interferon-γ levels (pg/ml), co-culture with K562-A2- Erythroleukemia cells","interferon-γ levels (pg/ml), co-culture with SKOV3 Ovarian cells","interferon-γ levels (pg/ml), co-culture with Skmel 37 cells","interferon-γ levels (pg/ml), co-culture with U251 Glioma cells",Binder
47300 pg/mL,57700 pg/mL,40000 pg/mL,3460 pg/mL,164000 pg/mL,13600 pg/mL,9860 pg/mL,10600 pg/mL,20000 pg/mL,B1
52500 pg/mL,60200 pg/mL,46100 pg/mL,3160 pg/mL,85900 pg/mL,12800 pg/mL,11000 pg/mL,8940 pg/mL,22900 pg/mL,B2
49100 pg/mL,47100 pg/mL,51200 pg/mL,3050 pg/mL,138000 pg/mL,13600 pg/mL,22500 pg/mL,11400 pg/mL,21400 pg/mL,B3

# Biological target: T1, naturally processed and presented SSX-2 …
# Assay: cell-based or functional assay
# Remark: another data set of the same source
"interferon-γ levels (pg/ml), co-culture with 293-A2-SSX2 cells","interferon-γ levels (pg/ml), co-culture with 624 mel cells","interferon-γ levels (pg/ml), co-culture with 938-A2 mel cells","interferon-γ levels (pg/ml), co-culture with 1300 mel cells","interferon-γ levels (pg/ml), co-culture with COS-A2-SSX2 cells","interferon-γ levels (pg/ml), co-culture with K562-A2- Erythroleukemia cells","interferon-γ levels (pg/ml), co-culture with SKOV3 Ovarian cells","interferon-γ levels (pg/ml), co-culture with Skmel 37 mel cells","interferon-γ levels (pg/ml), co-culture with U251 Glioma cells",Binder
37300 pg/mL,47000 pg/mL,51100 pg/mL,2720 pg/mL,56900 pg/mL,17400 pg/mL,2220 pg/mL,10400 pg/mL,19000 pg/mL,B1
29800 pg/mL,27300 pg/mL,37000 pg/mL,2560 pg/mL,52600 pg/mL,12500 pg/mL,2410 pg/mL,6640 pg/mL,16700 pg/mL,B2
37500 pg/mL,37500 pg/mL,46300 pg/mL,2600 pg/mL,64100 pg/mL,21300 pg/mL,2530 pg/mL,8870 pg/mL,19200 pg/mL,B3
